Data taken from US20230211003A1, “CONJUGATE COMPOUNDS FOR PREVENTING AND/OR TREATING HBV AND/OR HDV INFECTIONS, LIVER DISEASES ANDFOR TARGETING NTCP” (priority 2019, published 2023).
Where two headings read alike, the source gives them in different places. Square brackets hold non-standard residues; d marks the D form. Ends that are not written are not given here. Peptide text beside a SMILES is read from it. * marks the point of attachment. Ursodeoxycholyl = C[C@H](CCC(=O)*)[C@H]1CC[C@H]2[C@@H]3[C@@H](O)C[C@@H]4C[C@H](O)CC[C@]4(C)[C@H]3CC[C@]12C; Myristoyl = CCCCCCCCCCCCCC(=O)*

What was measured:
HDV = assay: microbe, parasite or virus in culture; format: cell-based, hepatitis D virus (HDV)
From the text: FIG. 3 HBV/HDV infection assay.
Tested were conjugate compounds comprising a truncated variant of Myrcludex B (amino acids 2-21) conjugated with bile acids cholic acid (CA) and ursodeoxy cholic acid (UDCA). They were compared with a control peptide not containing a bile acid moiety, namely HBVpreS/(-11)-21^myr (Genotype B) and the two bile acids CA and UDCA alone.
FIG. 4 HBV/HDV infection assay.
Tested were conjugate compounds comprising a truncated variant of Myrcludex B (amino acids 2-21) conjugated with cholic acid (CA) and a cyclic peptide (also comprising amino acids 2-21) conjugated with ursodeoxy cholic acid (UDCA). They were compared with a control peptide not containing a bile acid moiety, namely HBVpreS/2-21^myr (Genotype B).
FIG. 5 HBV/HDV infection assay of compounds conjugated with bile acid monomers and dimers.
Tested were three compounds: two conjugated with ursodeoxy cholic acid (UDCA) and one with a dimer of ursodeoxy cholic acid (UDCA)2, wherein two comprise amino acids 2-21 of Myrcludex B in a linear form and one as cyclic peptide.
FIG. 7 Infection inhibition of bile acid conjugates with linear peptide sequences Reduction of HDV infection by various bile acid conjugates, control peptides, ursodeoxycholic acid and cholic acid in Huh7-hNTCP cells. The cells were pretreated with the substances for 30 minutes and then co-incubated with the substances and HDV overnight. An in-cell ELISA was carried out five days after infection (n=3).
Reduction of HDV infection by various bile acid conjugates and control peptides in Huh7-hNTCP cells. The cells were pretreated with the substances for 30 minutes and then co-incubated with the substances and HDV overnight. An in-cell ELISA was carried out five days after infection (n=3).
Reduction of HDV infection by a bile acid dimer peptide conjugate bile acid conjugates as compared to the monomeric bile acid conjugates and the control peptides in Huh7-hNTCP cells. The cells were pretreated with the substances for 30 minutes and then coincubated with the substances and HDV overnight. An in-cell ELISA was carried out five days after infection (n=3).
Example 3 HDAg In-Cell ELISA (Huh7-hNTCP
1st Antibody Mouse or rabbit anti HDAg (FD3A7) 1:3000
2nd Antibody: Goat-anti-mouse or goat-anti-rabbit peroxidase conjugated 1:5000
Grow and infect cells in white 96-well plates.
1) Fix cells with 50 μl 4% PFA at RT for 30 min
5) Incubate with 100 μl primary antibody (1:3000) diluted in blocking buffer at RT with shaking for 1 h
9) Incubate with 100 μl 2nd Antibody 1:5000 in blocking buffer at RT with shaking for 1 h.
11) Add 50 μl luminescence substrate (mix according to manufacturer's protocol) and measure at plate reader directly after pipetting.
(Enhanced luciferase protocol, 0.1 s measurement)

[1] = molecular target: human sodium taurocholate co-transporting polypeptide (NTCP/SLC10A1) (human) (UniProt Q14973); assay: cell-based or functional assay
[2] = molecular target: T1, human sodium taurocholate co-transporting polypeptide (NTCP/SLC10A1) (human, UniProt Q14973 1-349); assay: cell-based or functional assay
T1 sequence: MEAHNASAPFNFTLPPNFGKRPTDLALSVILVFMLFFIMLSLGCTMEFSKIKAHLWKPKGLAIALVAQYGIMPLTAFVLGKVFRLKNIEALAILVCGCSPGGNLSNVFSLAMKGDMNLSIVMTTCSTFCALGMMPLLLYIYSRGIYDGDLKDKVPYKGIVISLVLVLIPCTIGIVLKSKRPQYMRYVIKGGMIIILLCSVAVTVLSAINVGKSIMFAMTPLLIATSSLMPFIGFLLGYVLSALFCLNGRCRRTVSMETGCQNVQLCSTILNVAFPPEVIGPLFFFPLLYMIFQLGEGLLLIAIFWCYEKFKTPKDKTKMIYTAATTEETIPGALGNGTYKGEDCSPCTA

[3] = experiments of FIGS. 7 and 9, Huh7-hNTCP cells pretreated 30 minutes, co-incubated with HDV overnight, in-cell ELISA five days after infection (n=3), read-out: IC 50
[4] = HDV infection, Huh7-hNTCP cells, in-cell ELISA, FIGS. 3, 4 and 5 (genotype B sequence), read-out: IC50

C[C@H](CCC(=O)O)[C@H]1CC[C@H]2[C@@H]3[C@H](O)C[C@@H]4C[C@H](O)CC[C@]4(C)[C@H]3C[C@H](O)[C@]12C [CA, cholic acid]
IC50 (HDV; Hepatitis delta virus): 115000 nM

CCCCCCCCCCCCCC(=O)NCC(=O)N[C@H](C(=O)N[C@@H](CC(N)=O)C(=O)N[C@@H](CC(C)C)C(=O)N[C@@H](CO)C(=O)N[C@H](C(=O)N1CCC[C@H]1C(=O)N[C@@H](CC(N)=O)C(=O)N1CCC[C@H]1C(=O)N[C@@H](CC(C)C)C(=O)NCC(=O)N[C@@H](Cc1ccccc1)C(=O)N[C@@H](Cc1ccccc1)C(=O)N1CCC[C@H]1C(=O)N[C@@H](CC(=O)O)C(=O)N[C@@H](Cc1c[nH]cn1)C(=O)N[C@@H](CCC(N)=O)C(=O)N[C@@H](CC(C)C)C(=O)N[C@@H](CC(=O)O)C(=O)N1CCC[C@H]1C(=O)N[C@H](Cc1ccc(O)cc1)C(=O)N[C@@H](CCCCNC(=O)CC[C@@H](C)[C@H]1CC[C@H]2[C@@H]3[C@@H](O)C[C@@H]4C[C@H](O)CC[C@]4(C)[C@H]3CC[C@]12C)C(N)=O)C(C)C)[C@@H](C)O [HBVpreS/2-21myr-UDCA] (Myristoyl-GTNLSVPNPLGFFPDHQLDP[dY]K(Ursodeoxycholyl)-NH2)
IC50 (HDV; [3]): 9.2 nM

CCCCCCCCCCCCCC(=O)NCC(=O)N[C@H](C(=O)N[C@@H](CC(N)=O)C(=O)N[C@@H](CC(C)C)C(=O)N[C@@H](CO)C(=O)N[C@H](C(=O)N1CCC[C@H]1C(=O)N[C@@H](CC(N)=O)C(=O)N1CCC[C@H]1C(=O)N[C@@H](CC(C)C)C(=O)NCC(=O)N[C@@H](Cc1ccccc1)C(=O)N[C@@H](Cc1ccccc1)C(=O)N1CCC[C@H]1C(=O)N[C@@H](CC(=O)O)C(=O)N[C@@H](Cc1c[nH]cn1)C(=O)N[C@@H](CCC(N)=O)C(=O)N[C@@H](CC(C)C)C(=O)N[C@@H](CC(=O)O)C(=O)N1CCC[C@H]1C(N)=O)C(C)C)[C@@H](C)O [HBVpreS/2-21myr] (Myristoyl-GTNLSVPNPLGFFPDHQLDP-NH2; C-terminus assumed)
IC50 (HDV; [4]): 62.8 nM

C[C@H](CCC(=O)O)[C@H]1CC[C@H]2[C@@H]3[C@@H](O)C[C@@H]4C[C@H](O)CC[C@]4(C)[C@H]3CC[C@]12C [UDCA, ursodeoxycholic acid]
IC50 (HDV; [4]): 79000 nM | IC50 (HDV; [3]): 79000 nM

HBVpreS/2-21myr (consensus) (peptide)
IC 50, inhibition of HDV infection of Huh7-hNTCP cells (in-cell ELISA, FIGS. 7 and 9) [1]: 70.3 nM

HBVpreS/2-21myr-(UDCA)2 (genotype B) (peptide)
IC50, inhibition of HDV infection of Huh7-hNTCP cells (HDAg in-cell ELISA) [1]: 3.55 nM | IC 50, inhibition of HDV infection of Huh7-hNTCP cells (in-cell ELISA, FIGS. 7 and 9) [1]: 12.7 nM

HBVpreS/2-21myr-CA (genotype B) (peptide)
IC50, inhibition of HDV infection of Huh7-hNTCP cells (HDAg in-cell ELISA) [1]: 7.27 nM | IC 50, inhibition of HDV infection of Huh7-hNTCP cells (in-cell ELISA, FIGS. 7 and 9) [1]: 12.5 nM

HBVpreS/2-21myr-LCA (genotype B) (peptide)
IC 50, inhibition of HDV infection of Huh7-hNTCP cells (in-cell ELISA, FIGS. 7 and 9) [1]: 7.5 nM

HBVpreS/2-21myr-UDCA (genotype B) (peptide)
IC50, inhibition of HDV infection of Huh7-hNTCP cells (HDAg in-cell ELISA) [1]: 8.45 nM | IC 50, inhibition of HDV infection of Huh7-hNTCP cells (in-cell ELISA, FIGS. 7 and 9) [1]: 9.2 nM

MyrB-UDCA (peptide)
IC 50, inhibition of HDV infection of Huh7-hNTCP cells (in-cell ELISA, FIGS. 7 and 9) [1]: 1.5 nM

B1: HBVpreS/2-21myr (Genotype B) (peptide)
peptide: Myristoyl-GTNLSVPNPLGFFPDHQLDP
IC50, inhibition of HDV infection of Huh7-hNTCP cells (HDAg in-cell ELISA) [2]: 62.8 nM
